Experimental data as given in patent US9063157B2, “Method for evaluating skin condition using squamous cell carcinoma antigen as marker” (Shiseido Company, Ltd., priority 2005, dated 2015).
“Also recorded” adds a separate entry of the source. Like-named read-outs stand apart in the source and are kept apart here. * marks the point of attachment. Cbz = O=C(OCc1ccccc1)*; CH2F = FC*

What was measured:
[1] = molecular target: T1, purified caspase-14 (Homo sapiens, UniProt P31944); experiment: Caspase-14 activity inhibitor assay with WEHD-MCA substrate; type: biochemical
T1 construct: human caspase-14 was purified as a heterodimer comprising a large subunit (17 KDa) and a small subunit (11 KDa); from tissue; host or cells: human heel stratum corneum (cornified cells)
T1 sequence (P31944 6-146 limits assumed): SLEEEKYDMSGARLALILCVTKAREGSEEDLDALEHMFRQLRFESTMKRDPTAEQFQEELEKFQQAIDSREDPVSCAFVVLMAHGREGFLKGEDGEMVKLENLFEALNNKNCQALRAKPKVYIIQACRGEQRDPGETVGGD
T1 sequence (P31944 153-242 limits assumed): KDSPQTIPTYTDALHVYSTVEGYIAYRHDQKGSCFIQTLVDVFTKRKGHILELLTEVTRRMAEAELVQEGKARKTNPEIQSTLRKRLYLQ
Procedure: Currently, 15 types of human caspases are known, but caspase-14 was incubated together with various peptide inhibitors for caspases (YVAD (SEQ ID NO:3), VDVAD (SEQ ID NO:4), DEVD (SEQ ID NO:5), VEID (SEQ ID NO:6), IETD (SEQ ID NO:7), LEHD (SEQ ID NO:8), DNLD (SEQ ID NO:9)), class-specific inhibitors for cysteine proteinases (IAA) or serine proteinases (AEBSF). WEHD-MCA (SEQ ID NO:10) was used as substrate in the presence of 1.3 M sodium citrate and 5 mM DTT, and the residual enzyme activity was measured. The tested enzyme concentrations were 5, 2.5 and 1.25 μM. The values were represented as mean values for multiple assays.
Caspase-14 activity was assayed by the method described in Mikolajczyk J. et al., Biochemistry 43, 10560-9 (2004), with some modifications, using Ac-WEHD-MCA as substrate. Briefly, an assay mixture was prepared from 45 μL of 0.1 M HEPES buffering solution (pH 7.5), 0.06 M NaCl, 0.01% CHAPS, 5 mM DTT, 1.3 M sodium citrate and 10 μM WEHD-MCA (all final concentrations). After adding enzyme sample (5 μl) to the mixture, it was incubated for 10-30 minutes. The reaction was suspended by addition of 150 μl of 0.1 M monochloroacetic acid, and Fluoroskan Ascent FL (Thermo Electron Co., Wolsam, Mass.) was used for measurement with a 355 nm excitation wavelength and a 460 nm luminous wavelength. For the inhibitor assay, caspase-14 and peptide inhibitor were incubated at room temperature for 15 minutes in assay buffer, and 5 μl of 100 μM WEHD-MCA was added to start the assay.
Human cornified cells (about 14 g) scraped from healthy human heel were extracted with 0.1 M Tris-HC1 (pH 8.0) containing 0.14 M NaCI, using a glass homogenizer. After centrifuging at 15,000g for 60 minutes, the supernatant was collected. It was concentrated with Amicon Ultra (Millipore, MA) and desalted with a Fast Desalting Column HR10/10 (Amersham Biosciences), and then the crude product was coated onto a HiPrep 16/10 Q XL column. The column was cleaned with 20 mM Tris-HCI (pH 8.0) and eluted with a 0-1 M linear NaCl gradient. The fraction was tracked by Western blotting using caspase-14antibody (H-99) (Santa Cruz Biotechnology, CA) and h14D^146 antibody. Each fraction was subjected to assay of hydrolytic activity on Ac Trp-Glu-His-Asp-methyl-coumarinamide (WEND-MCA) (Peptide Institute, Inc., Osaka, Japan). The positive fraction was applied to a Mono Q column equilibrated with the same buffering solution, and eluted with a NaCl gradient of up to 1M. The caspase-14 fraction was further separated by Mono S positive cation exchange chromatography. The column was equilibrated with 20mM acetic acid buffer (pH 4.5) and eluted with a 0-1 M NaCl gradient. The positive fraction was concentrated and applied to a chromatofocusing Mono P column equilibrated with 25 mM ethanolamine (pH 8.3). Next, elution was performed while forming a pH gradient from pH 8 to 5 using 46ml of Polybuffer (pH 5.0). Caspase-14 was subjected to final purification using Superdex 75 gel chromatography. The protein concentration was determined using a BioRad Protein Assay Kit (BioRad Lab, Hercules, CA).

[2] = system: skin equivalent models; conditions: skin equivalent models (Weil et al., 1999); cited from earlier work
[3] = molecular target: T2, caspase-14 (Homo sapiens, UniProt P31944); experiment: ICAD cleavage by purified caspase-14, Western blotting; type: biochemical; conditions: for inhibition of ICAD decomposition by caspase-14: prolonged incubation (up to 16 hours), kosmotropic salt
T2 construct: human caspase-14 was purified as a heterodimer comprising a large subunit (17 KDa) and a small subunit (11 KDa); from tissue; host or cells: human heel stratum corneum (cornified cells)
T2 sequence (P31944 6-146 limits assumed): T1 sequence (P31944 6-146 limits assumed)
T2 sequence (P31944 153-242 limits assumed): T1 sequence (P31944 153-242 limits assumed)
From the text: Identified were 33 KDa and 27 KDa cleavage products. […] ICAD decomposition was observed only in the presence of a kosmotropic salt.
For Western blotting and immunohistochemical analysis of ICAD, anti-ICAD IgG (FL331, Santa Cruz Biotechnology) and DFF45/ICAD Ab-2 (NeoMarkers, Fremont, Calif.) were used.
The protein was separated by SDS-polyacrylamide gel electrophoresis with a 5-20% gradient gel. After electrophoresis, the protein was transferred onto a polyvinylidene difluoride membrane (Immobilon-P, Millipore, Bedford, Mass.) and incubated together with anti-caspase-14 antibody including H-99, h14D^146 or C20. Peroxidase-labeled anti-rabbit IgG (Sigma) or anti-goat IgG was used as secondary antibody and ECL-Plus (Amersham) was used as immunoreactive protein for visualization by chemiluminescence.
The present inventors tested the effect of caspase-14 on ICAD, in the course of searching for natural substrates of caspase-14, because disappearance of nuclei is a very important event for final differentiation.

[4] = molecular target: T3, caspase-3 (Homo sapiens, UniProt P42574); experiment: Caspase-3 activity with synthetic substrate DEVD-MCA or natural substrate ICAD; type: biochemical
T3 construct: When recombinant active caspases were incubated together with SCCA-1; purchased BIOMOL Research Labs, Inc. (Plymouth Meeting, PA)
T3 sequence (P42574 29-175 limits assumed): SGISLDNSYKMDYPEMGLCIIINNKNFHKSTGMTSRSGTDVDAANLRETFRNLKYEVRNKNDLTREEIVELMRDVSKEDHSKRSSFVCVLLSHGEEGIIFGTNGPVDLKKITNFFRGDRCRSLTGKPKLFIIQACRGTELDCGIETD
T3 sequence (P42574 176-277 limits assumed): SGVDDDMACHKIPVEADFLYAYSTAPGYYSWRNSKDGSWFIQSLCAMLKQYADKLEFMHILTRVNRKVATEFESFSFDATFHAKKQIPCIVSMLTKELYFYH
From the text: The enzymatic properties of purified caspase-14 were highly unique. Purified caspase-14exhibited relatively wide inhibitor sensitivity with respect to known caspase inhibitors. […] It was shown, for the first time, that SCCA-1 is an endogenous inhibitor of caspase-14. The property most specific to SCCA-1 is its high specificity for caspase-14. The other members, caspases 1-10, had never been reported as being affected by SCCA-1. […] This behavior is in contrast to Crm A. […] is also known to suppress several caspases including caspase-1 and caspase-8 (Gagliardini V. et al., Science 263: 826-8 (1994)). XIAP is known to inhibit caspase-3, -7, and -9 (Srinivasula S.M. et al., Nature 410: 112-6 (2001)). Since the anti-apoptotic protein p35 inhibits caspase-1, -3, -6, -7, -8, and -10, it is believed to have a wider spectrum.

[5] = system: caspases 1-10; experiment: Recombinant active caspases incubated with SCCA-1; type: biochemical
From the text: Benzyloxycarbonyl (Z)-YVAD-FMK, Z-YVAD-FMK, Z VDVAD-FMK, Z-DEVD-FMK, Z-VEID-FMK, Z-IETD-FMK, Z-LEHD-FMK, and Z-VAD-FMK were purchased from BioVision (Mountain View, CA). Recombinant caspases 1-10 were obtained from BIOMOL Research Labs, Inc. (Plymouth Meeting, PA).
Although SCCA-1 belongs to the serpin superfamily, it inhibits cysteine proteinases such as papain and cathepsin L (Takeda A. et al., Biol. Chem. 383, 1231-6 (2002)). […] Kosmotropic conditions were used for caspase-14. […] The enzyme activity was not recovered even with extended incubation.

[6] = WEHD-MCA substrate, 1.3 M sodium citrate, 5 mM DTT, tested concentrations 5, 2.5 and 1.25 μM

Molecule: VEID-FMK: peptide inhibitor for caspases (Cbz-VEID-CH2F; SMILES CC[C@H](C)[C@H](NC(=O)[C@H](CCC(=O)O)NC(=O)[C@@H](NC(=O)OCc1ccccc1)C(C)C)C(=O)N[C@@H](CC(=O)O)C(=O)CF)
- inhibiting effect against caspase-14 activity (residual enzyme activity) [1, 6]: virtually no effect

Molecule: IETD-FMK: caspase-8 inhibitor (Cbz-IETD-CH2F; SMILES CC[C@H](C)[C@H](NC(=O)OCc1ccccc1)C(=O)N[C@@H](CCC(=O)O)C(=O)N[C@H](C(=O)N[C@@H](CC(=O)O)C(=O)CF)[C@@H](C)O)
- inhibiting effect against caspase-14 activity (residual enzyme activity) [1, 6]: exhibited sensitivity

Molecule: O=C(O)CI [IAA, iodoacetic acid]
- inhibiting effect against caspase-14 activity (residual enzyme activity) [1]: no significant inhibiting effect

Molecule: LEHD-FMK: caspase-9 inhibitor (Cbz-LEHD-CH2F; SMILES CC(C)C[C@H](NC(=O)OCc1ccccc1)C(=O)N[C@@H](CCC(=O)O)C(=O)N[C@@H](Cc1c[nH]cn1)C(=O)N[C@@H](CC(=O)O)C(=O)CF)
- inhibiting effect against caspase-14 activity (residual enzyme activity) [1, 6]: exhibited sensitivity

Molecule: VAD-FMK: pan-caspase inhibitor (Cbz-Val-Ala-Asp-CH2F)
- inhibition of disappearance of nuclei [2]: inhibited disappearance of nuclei
- inhibiting effect against caspase-14 activity (residual enzyme activity) [1, 6]: inhibited caspase-14 activity at about the same level as VAD-FMK; also recorded: one of the most powerful caspase-14 inhibitors

Molecule: Benzyloxycarbonyl (Z)-YVAD-FMK
- inhibiting effect against caspase-14 activity (residual enzyme activity) [1, 6]: most powerful inhibiting effect; also recorded: strongest inhibition

Molecule: DEVD-FMK: caspase-3 inhibitor
- inhibiting effect against caspase-14 activity (residual enzyme activity) [1, 6]: exhibited sensitivity

Molecule: VDVAD-FMK: caspase-2 inhibitor (Cbz-VDVAD-CH2F; SMILES CC(C)[C@H](NC(=O)OCc1ccccc1)C(=O)N[C@@H](CC(=O)O)C(=O)N[C@H](C(=O)N[C@@H](C)C(=O)N[C@@H](CC(=O)O)C(=O)CF)C(C)C)
- inhibiting effect against caspase-14 activity (residual enzyme activity) [1, 6]: exhibited sensitivity

Molecule: NCCc1ccc(S(=O)(=O)F)cc1 [AEBSF, 4-(2-aminoethyl)benzenesulfonyl fluoride]
- inhibiting effect against caspase-14 activity (residual enzyme activity) [1, 6]: no significant inhibiting effect

B1: SCCA-1: recombinant squamous cell carcinoma antigen 1, an ov-serpin family papain-like cysteine protease inhibitor (protein)
chain: MNSLSEANTKFMFDLFQQFRKSKENNIFYSPISITSALGMVLLGAKDNTAQQIKKVLHFDQVTENTTGKAATYHVDRSGNVHHQFQKLLTEFNKSTDAYELKIANKLFGEKTYLFLQEYLDAIKKFYQTSVESVDFANAPEESRKKINSWVESQTNEKIKNLIPEGNIGSNTTLVLVNAIYFKGQWEKKFNKEDTKEEKFWPNKNTYKSIQMMRQYTSFHFASLEDVQAKVLEIPYKGKDLSMIVLLPNEIDGLQKLEEKLTAEKLMEWTSLQNMRETRVDLHLPRFKVEESYDLKDTLRTMGMVDIFNGDADLSGMTGSRGLVLSGVLHKAFVEVTEEGAEAAAATAVVGFGSSPTSTNEEFHCNHPFLFFIRQNKTNSILFYGRFSSP
- inhibition of ICAD cleavage by caspase-14 ([3]; 10 μM SCCA-1, in presence of kosmotropic salt): completely inhibited
- inhibition of ICAD decomposition by caspase-14 [3]: inhibition of ICAD decomposition
- inhibition of ICAD decomposition by caspase-14 ([3]; listed as SCCA 1): inhibited ICAD decomposition by caspase-14
- inhibiting effect against caspase-14 activity (residual enzyme activity) [1, 6]: inhibited caspase-14 activity against WEHD-MCA in a dose-dependent manner
- inhibition of caspase-3 activity ([4]; natural substrate ICAD): did not inhibit
- inhibition of caspase-3 activity ([4]; synthetic substrate DEVD-MCA): did not inhibit
- effect on enzyme activity of caspases 1-10 [5]: none of the caspase members (1-10) were affected in their enzyme activity
